Read-outs that look alike come from different tables or passages of the source.

One series has as its system NCI-H716 cells. The series is described as follows: GLP-1 secretion screen with bacterial supernatants on NCI-H716 cells (ELISA). The series is classed as cell-based, human. As to conditions: 2 h incubation at 37°C, total GLP-1 by ELISA, medium control = 100%, PMA at 2 μM, mean ± SD, n = 3. A general note: In an ELISA, binding on a coated surface is turned into a signal by an enzyme label.

The target of series [1] is T1, E. faecalis metalloprotease GelE (bacterial supernatants) (Enterococcus faecalis, UniProt Q833V7). The series is classed as in vitro ADME. Details: The secreted metalloprotease GelE serves E. faecalis by degrading misfolded surface proteins; endogenous in cells; host or cells: Enterococcus faecalis strains OG1RF, 30054A, 30002 (and TX5243 sprE mutant); culture supernatants. As to conditions: E. faecalis 30054A and 30002 supernatants; 200 pM GLP-1; 30 min at 100°C after incubation; ELISA; n = 2. On the procedure: If GelE was targeting the ELISA and not GLP-1, one would expect to see high levels of GLP-1 in a sample heat treated after incubation with GLP-1, ensuring no further degradation by GelE during the ELISA.
Supplementary file : FIG S4 GLP-1-inhibitory activity with heat treatment pre- and postincubation. […] Data were obtained from two independent experiments (n = 2) and are expressed as the mean ± SD. Download FIG S4, PDF file, 0.02 MB.

Series [2] has as its target E. faecalis metalloprotease GelE (apical supernatants) (Enterococcus faecalis, UniProt Q833V7). As to conditions: T84 transwell; approximately 500 pM GLP-1 in DMEM-F-12 basolateral; 16 h, 37°C, 5% CO2; ELISA; compared to DMEM-F-12 control; mean ± SD, four independent experiments. The method, then:
Growth cultures and assays of T84 cells were performed by methods described previously, with slight modifications ([26]). T84 human colonic epithelial cells (ATCC CCL-248) were propagated in tissue culture-treated T75 flasks (Cellstar), as indicated by the ATCC. When between 90 and 100% confluence, T84 cells were treated with 0.25% trypsin and plated onto 24-well, 3.0-μm polycarbonate membrane transwell filters (catalog no. 3415; Costar) at a density of 8 × 10^4 cells/well.
To prepare bacteria, on the day of the assay E. faecalis strains were subcultured 1% (vol/vol) from an overnight culture into GM17 and grown for 5 h, as described above. Whole-culture (cells plus supernatant) samples were diluted in DMEM–F-12 (Gibco) to a concentration of 1 × 10^7 CFU/ml, and supernatant samples were diluted 50% in DMEM–F-12. All samples were neutralized to a pH of 6.8 to 7 using 3 M NaOH.
A final TEER measurement was taken for each monolayer.

The target in series [3] is T1, E. faecalis metalloprotease GelE (bacterial supernatants). The settings on record: 500 pM recombinant GLP-1; 4 h at room temperature; ELISA; vs GM17 medium control; mean ± SD, n = 4. From the text:
Two secreted proteases from E. faecalis are well known, the serine protease SprE and the metalloprotease GelE, both of which are regulated by the two-component, quorum-sensing fsr (faecalis system regulator) operon ([9]) (Fig. 2A). We obtained strains of E. faecalis containing null mutations in sprE (TX5243), gelE (TX5264), and fsrB (TX5266), as well as a gelE sprE double mutant (TX5128), all generated in the commonly used wild-type OG1RF E. faecalis strain ([10]).
Supernatants from E. faecalis protease mutants and controls (OG1RF, TX5266 [fsrB mutant], TX5264 [gelE mutant], TX5243 [sprE mutant], and TX5128 [gelE sprE mutant]) were collected from an overnight culture grown in GM17 aerobically at 37°C by centrifugation, as described above.

Series [4] concerns the target T2, E. faecalis metalloprotease GelE (bacterial supernatants) (Enterococcus faecalis, UniProt Q833V7).
T2 sequence (Q833V7 whole entry, looked up): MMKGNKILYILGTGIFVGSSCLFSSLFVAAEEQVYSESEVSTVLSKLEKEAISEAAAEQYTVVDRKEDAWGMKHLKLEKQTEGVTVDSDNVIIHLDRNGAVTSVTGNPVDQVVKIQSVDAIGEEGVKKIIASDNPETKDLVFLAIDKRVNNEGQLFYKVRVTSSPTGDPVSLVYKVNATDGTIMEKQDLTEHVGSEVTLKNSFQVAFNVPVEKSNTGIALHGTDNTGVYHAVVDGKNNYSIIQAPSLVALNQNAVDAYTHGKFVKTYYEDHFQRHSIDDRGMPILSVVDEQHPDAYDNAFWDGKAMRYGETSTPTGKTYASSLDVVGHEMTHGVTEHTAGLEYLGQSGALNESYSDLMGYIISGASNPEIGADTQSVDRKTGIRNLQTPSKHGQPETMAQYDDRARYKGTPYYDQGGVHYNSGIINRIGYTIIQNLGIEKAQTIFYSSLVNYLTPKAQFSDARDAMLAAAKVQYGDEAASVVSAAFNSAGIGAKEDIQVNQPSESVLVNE
As to conditions: 4 h at room temperature; for quantity (%) of substrate remaining after incubation with supernatant, dilution 0.0001x: E. faecalis 30054A supernatant diluted 0.0001x in bacterial culture medium; for quantity (%) of substrate remaining after incubation with supernatant, dilution 0.0001x / quantity (%) of substrate remaining after incubation with supernatant, dilution 0.001x / quantity (%) of substrate remaining after incubation with supernatant, dilution 0.01x / quantity (%) of substrate remaining after incubation with supernatant, dilution 0.1x / quantity (%) of substrate remaining after incubation with supernatant, dilution 1x: recombinant substrate, Luminex (Milliplex) read-out, mean ± SD; for quantity (%) of substrate remaining after incubation with supernatant, dilution 0.0001x / quantity (%) of substrate remaining after incubation with supernatant, dilution 0.001x / quantity (%) of substrate remaining after incubation with supernatant, dilution 0.01x / quantity (%) of substrate remaining after incubation with supernatant, dilution 0.1x / degradation of substrate by GelE (in words): n = 3; for quantity (%) of substrate remaining after incubation with supernatant, dilution 0.001x: E. faecalis 30054A supernatant diluted 0.001x in bacterial culture medium; for quantity (%) of substrate remaining after incubation with supernatant, dilution 0.01x: E. faecalis 30054A supernatant diluted 0.01x in bacterial culture medium; for quantity (%) of substrate remaining after incubation with supernatant, dilution 0.1x: E. faecalis 30054A supernatant diluted 0.1x in bacterial culture medium; for degradation of substrate by GelE (in words): undiluted supernatants of E. faecalis 30054A, 30002, OG1RF, ΔgelE, ΔsprE, S613, Luminex, Fig. 4; for quantity (%) of substrate remaining after incubation with supernatant, dilution 1x: E. faecalis 30054A supernatant, 1x (undiluted), n = 3 independent experiments. On the procedure: To gain a better understanding of the substrate preference of GelE, we also tested the ability of diluted supernatants of E. faecalis 30054A, from 1 to 0.0001×, to degrade the same panel of metabolic substrates (Table 1).
Bacterial supernatants were collected from an overnight culture by centrifugation as described above, diluted in bacterial culture medium as indicated, and incubated with recombinant protein (GenScript; Sigma, Tocris) of each analyte for 4 h at room temperature, followed by storage at –80°C until ready for analyte quantification. The Milliplex multiplex assay was run according to the protocol provided by the manufacturer.

A further series concerns E. faecalis 30054A. The series is described as follows: Sensitivity of GLP-1-inhibitory activity to TPEN. The series is classed as cell-based, Enterococcus faecalis. The settings on record: E. faecalis 30054A grown overnight with increasing amounts of TPEN; supernatants incubated with 500 pM GLP-1, 4 h at room temperature; ELISA; n = 3. An excerpt:
Supplementary file : FIG S1 Sensitivity of GLP-1-inhibitory activity to TPEN. […] Data were obtained from three (n = 3) independent experiments (replicates 1 to 3) with mean ± SD shown for each replicate (technical variation). Linear regression with R^2 goodness-of-fit value and P value are reported. Download FIG S1, EPS file, 0.1 MB.

Description for NCI-H716 cells: NCI-H716 (American Type Culture Collection [ATCC] CCL-251) cells were grown in RPMI (ATCC) medium supplemented with 10% (vol/vol) heat-inactivated newborn calf serum (NBCS; Gibco). Cultures were maintained at a concentration of 2 × 10^5 to 8 × 10^5 cells/ml and used at passages 15 to 40 for cell studies. For cell studies, 96-well plates were coated with 100 μl of 10 mg/ml Matrigel (BD Biosciences) for 2 h at room temperature. Following coating, NCI-H716 cells were seeded at a concentration of 1 × 10^5 cells/well in Dulbecco’s modified Eagle’s medium (DMEM) supplemented with 10% (vol/vol) NBCS, as determined by trypan blue staining using a hemocytometer. Two days later, lyophilized bacterial supernatants were resuspended in Krebs buffer (Sigma) containing 0.2% (wt/vol) bovine serum albumin (BSA) and 0.03% (wt/vol) bovine bile and incubated on the NCI-H716 cells at 37°C with 5% CO2. […] Cell viability was monitored using the PrestoBlue cell viability reagent (Thermo Fisher Scientific), following the manufacturer’s instructions.

As for `CCCCCCCCCCCCCC(=O)O[C@@H]1[C@@H](C)[C@@]2(O)[C@@H](C=C(CO)C[C@]3(O)C(=O)C(C)=C[C@@H]23)[C@@H]2C(C)(C)[C@]12OC(C)=O` [PMA, 4-Phorbol 12 myristate 13-acetate], in the series on NCI-H716 cells, the “GLP-1 compared to the medium controls” value was found to be 200%.
As for `CC[C@H](C)[C@H](NC(=O)[C@H](Cc1ccccc1)NC(=O)[C@H](CCC(=O)O)NC(=O)[C@H](CCCCN)NC(=O)[C@H](C)NC(=O)[C@H](C)NC(=O)[C@H](CCC(N)=O)NC(=O)CNC(=O)[C@H](CCC(=O)O)NC(=O)[C@H](CC(C)C)NC(=O)[C@H](Cc1ccc(O)cc1)NC(=O)[C@H](CO)NC(=O)[C@H](CO)NC(=O)[C@@H](NC(=O)[C@H](CC(=O)O)NC(=O)[C@H](CO)NC(=O)[C@@H](NC(=O)[C@H](Cc1ccccc1)NC(=O)[C@@H](NC(=O)CNC(=O)[C@H](CCC(=O)O)NC(=O)[C@H](C)NC(=O)[C@@H](N)Cc1c[nH]cn1)[C@@H](C)O)[C@@H](C)O)C(C)C)C(=O)N[C@@H](C)C(=O)N[C@@H](Cc1c[nH]c2ccccc12)C(=O)N[C@@H](CC(C)C)C(=O)N[C@H](C(=O)N[C@@H](CCCCN)C(=O)NCC(=O)N[C@@H](CCCNC(=N)N)C(N)=O)C(C)C` [GLP-1, glucagon-like peptide-1], the “GLP-1 levels, supernatants heat treated after incubation with GLP-1” value in series [1] was “low GLP-1 levels”. In addition, in series [2], the “GLP-1 in the basolateral compartment, apical 30054A supernatant” value was 3.1% ± 2.68% and the “GLP-1 in the basolateral compartment, apical OG1RF supernatant” value is 1.6% ± 0.46%. In series [3], the “GLP-1 level after incubation with OG1RF (wild-type) supernatant” value was −0.06% ± 0.76% and the “GLP-1 level after incubation with ΔsprE mutant (TX5243) supernatant” value is reported as −0.14% ± 0.74%.
In the case of tumor necrosis factor alpha [TNFα], in series [4], the “quantity (%) of substrate remaining after incubation with supernatant, dilution 0.0001x” value is given as 98.12 ± 1.67%; the “quantity (%) of substrate remaining after incubation with supernatant, dilution 0.001x” value worked out at 99.28 ± 1.25%; the “quantity (%) of substrate remaining after incubation with supernatant, dilution 0.01x” value amounted to 99.72 ± 0.48%; the “quantity (%) of substrate remaining after incubation with supernatant, dilution 0.1x” value was 87.87 ± 19.41%. For the same compound, the “degradation of substrate by GelE (in words)” value (“degradation of substrate” for short) in series [4] was “less striking but still statistically significant”.
For interleukin 6 [IL-6], in series [4], the “quantity (%) of substrate remaining after incubation with supernatant, dilution 0.0001x” value came out at 95.74 ± 6.94%; the “quantity (%) of substrate remaining after incubation with supernatant, dilution 0.001x” value stood at 95.75 ± 7.36%; the “quantity (%) of substrate remaining after incubation with supernatant, dilution 0.01x” value is 99.91 ± 0.15%; the “quantity (%) of substrate remaining after incubation with supernatant, dilution 0.1x” value was 99.78 ± 0.37%. Further, in series [4], the “quantity (%) of substrate remaining after incubation with supernatant, dilution 1x” value turned out to be 80.28 ± 24.77% and the “degradation of substrate” value is “did not observe consistent degradation”.
As for leptin, in series [4], the “quantity (%) of substrate remaining after incubation with supernatant, dilution 0.0001x” value is recorded as 97.77 ± 3.87%; the “quantity (%) of substrate remaining after incubation with supernatant, dilution 0.001x” value came out at 99.78 ± 0.39%; the “quantity (%) of substrate remaining after incubation with supernatant, dilution 0.01x” value is listed as 72.29 ± 1.72%; the “quantity (%) of substrate remaining after incubation with supernatant, dilution 0.1x” value was 7.95 ± 4.72%. In addition, the “quantity (%) of substrate remaining after incubation with supernatant, dilution 1x” value in series [4] amounted to 2.15 ± 0.96%. The “quantity (%) of substrate remaining after incubation with supernatant, dilution 0.1x” value in series [4] (listed as leptin) is 7.95% ± 4.72%.
insulin: in series [4], the “quantity (%) of substrate remaining after incubation with supernatant, dilution 0.0001x” value was 99.23 ± 1.33%; the “quantity (%) of substrate remaining after incubation with supernatant, dilution 0.001x” value was 99.97 ± 0.05%; the “quantity (%) of substrate remaining after incubation with supernatant, dilution 1x” value was 57.29 ± 7.69%; the “degradation of substrate” value was “less striking but still statistically significant”.
Regarding “monocyte chemoattractant protein-1 [MCP-1]”, in series [4], the “quantity (%) of substrate remaining after incubation with supernatant, dilution 0.0001x” value amounted to 98.33 ± 2.89%; the “quantity (%) of substrate remaining after incubation with supernatant, dilution 0.001x” value stood at 99.99 ± 0.01%; the “quantity (%) of substrate remaining after incubation with supernatant, dilution 0.01x” value came to 99.92 ± 0.14%; the “quantity (%) of substrate remaining after incubation with supernatant, dilution 0.1x” value was 74.03 ± 44.98%. Further, in series [4], the “degradation of substrate” value was “less striking but still statistically significant”.
Consider `c1ccc(CN(CCN(Cc2ccccn2)Cc2ccccn2)Cc2ccccn2)nc1` [TPEN, N,N,N′,N′-tetrakis(2-pyridylmethyl)ethane-1,2-diamine], for which the “effect on GLP-1 degradation by supernatant” value in the series on E. faecalis 30054A is listed as “reduction in GLP-1 degradation”.
